Measurements reported in a protein production outcome set (Wang et al. 2014).

Assay: label from the status in PepcDB records

Sequence | protein production
MKPLSARQQQVLQATVHHYVDTMEPVGSRTLVQRFGIPASSATVRSAMGALEKRGLLTQPHTSAGRIPSALGYRCYVDDLLPEPGVAVQHLERELTGLSLRWAALDDLLQQLARRLTDFTGLMSLITRPQQPRAQLEAIRLVQSGDRLLVMLVEDSGRASHLNLRLPPGASDELTAIERWTDQQLEDGSINWRSLPPQLQRSGDVLRSALDHPSMSPETPLVVHGLSRLVAEPEFHSTAELRPLLELIDDQPCAVVSATDQPGVWIGEEHPQKALQACSVVQAPYRCGQEGVGQVALVGPMRMAYATAHAAVQRVARHLDLLLN | failed
MEVGMIPRVYLGHEWFGAERILSEYQVPEDCGAQVLFLGIPRNAPEDGGNIEALEYEAYPEMAIKEMEKIRQETIEKFGVKEVFIHHRLGLVKIGEPSFLVLAVGGHREETFKACRYAVDETKKRVPIWKKEIFKEGKGEWVLGEKKNASGQTK | not failed
MKTKYIIASLGLATLLSFGANAAVHQVNAEQAQNLQPMGTISVSQIGSTPMDMRQEIVAKAEKAGANSYRIIELKEGDNWHATAELYKLEHHHHHH | failed
MKRYIYLFVSVFTLVMASCQQEETSNGKTGFLQFSVEKNTSTILVPATRAEELPIALQVVDRAGTVVKETDDWHNWTSTPLELPLGSYTINAFSKGVDVGTAGFDEPYYWGQSEVTVVPKVNQSVNIECRLANVKVTVNYSADVKKYFSKLNCSVGNSSGKLVFGKDETRSGYFAVDKLNISLALTNTDGRSFVFESEPITDVKERQHYRINYTMKANGAIGGVSVTLDPSTKEYNVNIAIPKESNPSVNVWSDFADVTLPLPDGVVTKECKYRISGTEDWNTVSNVEQADGKLVATITGLIPGTEYDFCFAINGVNGKITTATTELQKQLENGSFDEWNQNGKTWFPGTAAEASAKNSYWDTGNVGAATMSKNPSIGESNDVHTVGGKSAKLSSQFVGMFGIGKFAAGNIYIGRYMETYTSPMGARIRFGREFTSRPTQLKGWYKYTRGTSIDRGDHNVEELKNSGGDKCAIYIALTDNEGLVDDNGVKTAYEVNNNKEGSPTRYTVDLSEANKDVIAYGSITDEESKGSFDESGNVVWKQFTIDLKYRDLTRKPKYIIVVASASKYGDFFTGSESSVMLIDDFELVYGTPVTAN | failed
MTTRILTGITPTGTPHLGNYAGAIRPAILASRRSDVDSFYFLADYHALIKCDDPARIQRSRLEIAATWLAGGLDVERATFYRQSDIPEIPELTWLLTCVSAKGLLNRAHAYKAAVDRNVEAGEDPDAGVTMGLYSYPVLMAADILMFNAHKIPVGRDQVQHVEMARDIGQRFNHLFGNGREFFVLPEAVIEENVATLPGLDGRKMSKSYDNTIPLFSPSRQLKDAIARIVTDSRAPGEPKDPDSSHLFLLYSAFASAEQVAAFRQELLEGLAWGEAKQRLFQLLDNELGEARERYQALIAKPDDIEDILLAGAAKARRIATPFIAELREAVGLRSLREPLKSAESGKKKAAKAARLVSFRDDDGSFRFRLLDAAGEQLLLSRAFADGKAAGAVSKRLLAGETADLRAEGNAFGLWLDGEAVAQSPAFADAAARDAAIERTREALAPQ | failed
FKAVFISDTHLGTKDSKASLLLEFIKEIETKELYLVGDIIDGWSLKRKWIWLQPHSDVIQKILKAARKGVRVTYILGNHDEFIRPFLPLALGDHIRVVDEATYKAKNKKRYKIVHGDLYDSITMTKKWLAILGDNGYQFLLRLNDPINTLRQRLGFRRYWSFSQFIKDHVKQAVAYISDFEKILVAHAREEKFDGIICGHIHKAEIRDIEGITYMNCGDWVESCTALVETLEGEFKIIRW | failed
MKFISTSLLLMLLVSSLSPVQGVLEVYYTSLRCRCVQESSVFIPRRFIDRIQILPRGNGCPRKEIIVWKKNKSIVCVDPQAEWIQRMMEVLRKRSSSTLPVPVFKRKIP | failed
MSIRIDRQRCIGCGKCAEICPGNLIVIDEDKKAFVRDPRDCWGCAACVKECKFSAIRYFLGAEIGGNGTTMYVEKENDEIMYWYFEKPSGEKEMIVQNLKDNTTYLEHHHHHH | failed
MAWRVGIAPLMTPSTPLWPGREPVYRSAALSSMEPGRPRGQQGTELGMPAGAPLRRGIGGGPGLDVRRRDLGAVAAAHQHAILGPAQVGDAHGEPDPDRGQRDGEGERGDVGEHAVAEIVRLGARLLVARQVERLGRAAHRLHGAVAPVDRRGGGGARPELEHPVLLIRAYGPLGFHGARITPKQRFLIAYVVNALQKIFSTRTCIALLHDLFAKARDSGRHAGVRMRGVALQNSHGTCRARSREHRLVISLCAPNAFCRRKAHGIIMEPGPPVATNNVRGSSTMTTNAREPRVHPVPILSLRPTQMTVGMREVKEKRKRWREHDSKKQADLLGKHMIPVVYGPDKRYYVIDHHHLGRALHDEGVKEVLVTVVGDLRMVEREAFWGVMDNKRWVYPYDSKGERRPFRDLPKSVADLRDDPFRSLAGELRRLGGFAKDTTPFSEFLWADYLRRKLSRKAVDANFDKALEKALSAAKSKDAIYLPGWCGPADDD | failed
MKWTTANTKHVNYTAKHELYVGTHTGSFKHLVPASEKTPYGQSNLSDLCALDKDSRVTSLAFGNDDQTEILLGRAKDAVEIHSFTEKGHSRNTVSFNAAPIVGLARYNDKLIAGIGNGEIQSLELEANDESEPVVIATGDQMDHLRQCAQVKSIVATGGKERQNNLKVYDLNADGKQIFTSKNLPNDYLQLEVPVWDSDIGFVDGPSVLATCSRTGYVRIYDTRKQRRPVACFASEEHGMSFTTLVAKGNFIYTGTTMGALKAFDTRRMKTHVHTYKGFTGGISDLHLDATGRFLSSASLDRYVRIHDSETTVLLYQCYVKSKATKILIRPFENEARVTEEPEEVADLQMDRNVSENKSVNATSVDNEYEDMFDQMPTVGDSDNESEEEMSNIKLSKADLKRRSSEKSLKNKKKKVVIS | failed
MTFEDLHEYLDYLAKKNDLVTITEEVDPNLDLTYILSEEERMGRGRTILFKNVKGSQVPAVGNLFSTNEKLKAVLGDDPYSIGVKIADIVKPPRDSESFIGKGLEMMRELSGLRPKVSNSIPSGYSELEKVDLYRYPICKTWPDDGGPFITLPLVITKDPSTGIRNMGMYRMQVYDSETTGMHWHIHKGGSENFLKEKEKGKAMDVAVVIGSDPLTIFSAVAPLPNGIDEFMFRGLISRKRSELVKGKTVDLEYPRNFEIVLEGYIDPSETRVEGPFGDHTGYYSLEEEFPVFHVKNIIERNDRIYPTTIVGKLWHEDVVLGKAVERMFLPLIQMVLPEVVDINTMEEAVFHNMVIVSIKKRYPGHAKKVMFALWGLGQLMFSKIIVVVDDDINIHNRKELIWAMTTRIDPDRDVIIIPGTVTDSLDHAAPLFNYGSKMGIDATKKDKSEGYTRRWPDVLEMPKDVVDKVRQIMKNNRLIQLEHHHHHH | failed
MTVIERFKSNLKGKQNLINFGFILIGLFGCYLLIAWASYSPLDNAWSTASSVTHDTVLNKTGKLGAWLIDLLYAFLGNVAFVVPFVLFSFAIYALIFRIAEQWKWRNLLLQIGSFILLLIGLSGIASVLLPNSAYYLAGGFVGGMLQSLLNGIIGQVGLLLLSTVLMSIGFYFCSGQLLFSLGIQFYQWLFIKKPQSNTILEAANPHLNAQNNETTKSIVANPSENAHVDQLVTHENATEQLTDVSAFTRPTIHGLKSSSTLNTDKTKYNQVNAQPLTDPMMFKIEKKVILPKINMQHPENELTNLSMEQTNSIDNLEIRLPKVHLNTAVTNPEIKTVEHHAQNRPLEMPTQIQPVFDQPITPTISLNVEDQPLDIESNEAQLAEEFAAAEQMRLANMEQRAKAEGLEETFNQIITSPTLTVSINESSEQPTEKDLNPTHHDNGANYPKGYGKTLLHPLLQRNNVVEKPTTPLPTLELLAKNPVQTQQITEQEIFDTSHRLENALANYNVKATVEDVLVGPVVTRYEIKPAAGIKANKVTALANDLARELMFKAIRITEVVPGKPYMGIETPNTHRQTVWLRDVLDSEAFRHTQATLPMALGKDISGQPIVVDMAKMPHLLVAGQTGGGKSVGINTMILSLLFKLTPEQVRFIMIDPKVVELSVYNDIPHLLTPVVTDMKKAANALRWAVGEMERRYLLISHLQVRNIEGYNDKIDQASAMNFPIPDPTWRPADSIGQLPPPLTKLSYIVLIVDEFADLIMSAGKEVEEYIMRIAQKARAVGIHLILATQRPSTDVITGVIKANIPSRIAFTVASQIDSRTILDAGGAEALLGRGDMLYSASGSPEIMRIHGAFMSDEEVQRIADNWRARGKPQYLDSVVASHEDENDSRTNTITELDPLFDEIVAYVIESGVTSISGIQRRFSLGFNRAGRIIDQMEAQAIISEPGKGGKREVLAR | failed
LYQGFEKEFGRPLSPIELEMIGQWLNTDHYSPELIRLALREAVLNQAYSLKYIDRILLAWERKNITTKEQVAA | failed
MLNDGVYLAQARGMAGFVHAKLTVKDNKIVGVDLDLTTETPENKPKVEQQLKKEILTRQSADIDAVSGATFTSNGVKEAVQQTLKQAEKLEHHHHHH | not failed
MQAVALENDVIRRFASGQMFPMAKLVLETAFQPIVEATTGTIFGYESLMRGHDRLGFSSPLALLDQAAADGELKAFEQMLASRALAKFSTLPDFSSATLFLNLDVRLIPHGDVILDKLVGHLARAGIPASSICFELSERFDNTSVPEFTSLIARMRKEGFKLAIDDFGAGHGEMKLLCDFPLDYLKIDRHFISGIDHLPRKQHLVRNIVNIAHVLGVRVIAEGIETEAEFLSCREFGVDLVQGWLIAKPTVFTSELPESFPHLNRVGVARRNSQTLDEILIRREIERLPTVFEHDSVDSVFELFRRNPQQAFFPVLNANGEPRGVINEYHLKEYIYRPFGRDLLKNKIYERTISHFVDPAPIVGLDADADQLMNMFASMGGMGGSACIILTENMRYAGIVSAASLIKVINEKQLKMAQDQNPLTALPGNRAIGGFIADSCSDGDETRFFCYCDFDNFKPFNDKYGFNAGDHAITLFSALMRRYFFAGDCFLGHIGGDDFFIGVRDWSVEELMEILERLLSDFHDDVAGLYSDEDRAAGCMKGQDRNGNERDFALLRCSIGVLTLPKGSIIANPERIGSEIASVKAAAKENEGGLVVRVFGEANLEHHHHHH | failed
MYTENTGKHHRNGLPVWLLPLLVVISFWGVSQNIMVVDASSSVTVLPGNGGTLPLVNQLVIKQNDTALQGITNNAGDRGSLTPKNGAQRVLIHKVKDSDTITSTYGTVGTFHGQEVTAKVTISHIKVHDDSHKAPSGMKQTDGAFQIGPGFSSDTTMSNVAQFNVSYEFYYADTHAAVNIQNAFITLSSLDGPVAGTSTGFEYTAYLGAGKIYTVENSIVKQIANPLGGGQLVMAGQTARDASWPYTSSTAATFGVSGTKLEFIYGTTRVNSGNSWLQPVYNVSTITLGTPAIATPTLSATQSATDKQNRTLTYDLQQKVNVLDQDLMTKYKDWSENITIPANAKYTKGEVVNDAGQALPSTAYQVSYDEKTHQVKWHLTDAGIKSLPFKGETYHFKAQVQFSDDVDDQTKVTATGQTAIDKQTKTSNTVTNTIDNQATITVHHYMTDSTDKVAPDETVKVGYGKAYDVTKQVKTITGYKRNATLDEHTRGTASKTTKEAVMYYDPLPYNIHVNYLLTDGQKLDELDVTGLYGDTYTTEATDFEDLYTVDTDRLPTNAQGTVTEKPTTVNYYYQPTTGQWVDVGNQSSVLVRQDTKHNVRSVSQIYANDSGFTVKYNQDAAQVAIAASDTNGTQDNSLVFDYNSKYTFELSKNETVTFKVDDQGQVTATRVLGAEQTVTTFDKSGQLKTVTTVTNANGTKSQQTNTVDGLKSMVTGEQYDLGLLNGLKVTAQKEINPSQAATTESKTTTDTSQSGSNQSTSTTATDQTETNESTAGSSTNATNASSSVDASSANSQGDTEATSQSGTSASADSKTDSSVASSTSQTTDGKTDGETTNTGDTTTGTTTDSGLGFKSPFTEDQNTSSALGSAQTSSSLNSDTSAAVQALIAEPNSTPVVLGEDASFEEGVPVNDPVFSNDEGVSPNNNPSSAATPLAQATNTRARLTQNGKLLYEGTLKADQGEQNLYVSPDTTVEVDGGDDGDGFYLDTYDGDKGMAYTLGSGYAWAAENNDVTAAPASSATTSSESAASESNTNSSDSSRTASSAVDHSTSSASTSDASQSSHSTSSGESSHPESSSGSSTTSDSADADKQAAARSSQTQSNSVNGSSQAVSSSTVTSQSSVPTKANTKQASSTPTTKANRATVAAATSSTAPRQSRATTASASVPSVTSASAVAASRDKQQSAFKKQHPILNQILPKTNSAVATWLVWLGVGLLLLTVAITMVIKKRGRD | failed
